In patent US20230365658A1:
Where “and” joins values, the source holds several entries; their conditions need not be identical. Identical values can stand only once. Like-named read-outs stand apart in the source and are kept apart here.

Assays:
[1] = target: COV2-RBD (rpk9) B.1.1.529 (BA.1) (SARS-CoV-2)
[2] = target: COV2-RBD (rpk9) Wuhan-Hu-1 (WT) (SARS-CoV-2)
[3] = target: COV2-RBD (rpk9) Wuhan-Hu-1 (WT) (SARS-CoV-2); remark: listed apart in the source
[4] = target: COV2-RBD (rpk9) B.1.1.529 (BA.1) (SARS-CoV-2); test: Gyrolab immunoassay, reference titration, relative binding (%)
[5] = target: SARS-CoV-2 spike (S) glycoprotein, Omicron BA.1 (SARS-CoV-2) (UniProt P0DTC2); test: cell-based or functional assay
[6] = target: SARS-CoV-2 spike (S) glycoprotein, Omicron BA.1.1 (SARS-CoV-2) (UniProt P0DTC2); test: cell-based or functional assay
[7] = target: SARS-CoV-2 spike (S) glycoprotein, Omicron BA.2 (SARS-CoV-2) (UniProt P0DTC2); test: cell-based or functional assay
[8] = target: COV2-RBD (rpk9) B.1.1.529 (BA.1) (SARS-CoV-2); test: Gyrolab full-curve immunoassay (LLNL Gyros) on RBD
[9] = target: COV2-RBD (rpk9) Wuhan-Hu-1 (WT) (SARS-CoV-2); test: Gyrolab full-curve immunoassay (LLNL Gyros) on RBD
[10] = target: SARS-CoV-2 Spike-RBD, Delta (SARS-CoV-2) (UniProt P0DTC2); test: Gyrolab immunoassay, reference titration, relative binding (%)
[11] = target: COV2-RBD (rpk9) B.1.1.529 (BA.1) (SARS-CoV-2); test: Gyrolab immunoassay, IgG titrated on Spike-RBD, relative binding (FI)
[12] = target: COV2-RBD (rpk9) Wuhan-Hu-1 (WT) (SARS-CoV-2); test: as above
[13] = target: COV2-RBD (rpk9) B.1.1.529 (BA.1) (SARS-CoV-2); test: Gyros full-curve immunoassay, mAb titrated on RBD, relative binding (FI)
[14] = target: COV2-RBD (rpk9) Wuhan-Hu-1 (WT) (SARS-CoV-2); test: as above
[15] = target: SARS-CoV-2 Spike-RBD, Delta (SARS-CoV-2) (UniProt P0DTC2); test: as above
[16] = target: SARS-CoV-2 spike (S) glycoprotein, Delta (B.1.617.2) (SARS-CoV-2) (UniProt P0DTC2); test: cell-based or functional assay
[17] = target: SARS-CoV-2 spike (S) glycoprotein, Omicron BA.4 (SARS-CoV-2) (UniProt P0DTC2); test: cell-based or functional assay
[18] = target: SARS-CoV-2 spike (S) glycoprotein, Omicron BA.5.5 (SARS-CoV-2) (UniProt P0DTC2); test: cell-based or functional assay

COV2-2130 (antibody) was tested, and the EC50 [1] was 2.77 µg/mL and 1.75 µg/mL, the EC50 [2] was 1.72 µg/mL and 0.675 µg/mL and the EC50 (read off the curve) [3] was 800 ng/mL. The EC50 (read off the curve) [4] was 2000 ng/mL.
With S309 (antibody) the EC50 [1] was 17.2 µg/mL, the EC50 [2] was 5.76 µg/mL and the EC50 (read off the curve) [3] was 2000 ng/mL. It also gave a pseudovirus neutralization IC50 [5] of 63.2 ng/mL, a pseudovirus neutralization IC50 [6] of 33.2 ng/mL and a pseudovirus neutralization IC50 [7] of 109 ng/mL. For the same substance, the AUC(logC) [8] was 53.2, the AUC(logC) [9] was 60.6 and the EC50 (read off the curve) [4] was 6000 ng/mL. For the same substance, the EC50 (read off the curve) [10] was 2000 ng/mL, the EC50 (read off the curve) [11] was 4 µg/mL and the EC50 (read off the curve) [12] was 2 µg/mL. For the same substance, the EC50 (read off the curve) [13] was 4 µg/mL, the EC50 (read off the curve) [14] was 2 µg/mL and the EC50 (read off the curve) [15] was 2 µg/mL.
rDENV-2D22 (antibody) gave an authentic virus neutralization IC50 (FRNT) [16] greater than 10 µg/mL, an authentic virus neutralization IC50 (FRNT) [5] greater than 10 µg/mL and an authentic virus neutralization IC50 (FRNT) [6] greater than 10 µg/mL. For the same substance, the normalized pseudoneutralization IC50 [6] was greater than 10000 ng/mL, the authentic virus neutralization IC50 (FRNT) [17] was greater than 10 µg/mL and the normalized pseudoneutralization IC50 [17] was greater than 10000 ng/mL. The authentic virus neutralization IC50 (FRNT) [18] was greater than 10 µg/mL.
In the case of rS2K146 (antibody), the normalized pseudoneutralization IC50 [5] is reported as 4.38 ng/mL, the normalized pseudoneutralization IC50 [6] is reported as 2.09 ng/mL and the normalized pseudoneutralization IC50 [7] is reported as 3.36 ng/mL. It also gave a normalized pseudoneutralization IC50 [17] of 36 ng/mL.
